{
  "source": "patent EP3436577B1",
  "biological_target": "cation-independent mannose-6-phosphate receptor (CIMPR)",
  "assay": "CIMPR affinity chromatography with M6P elution gradient; spent cell culture medium before AEX product capture",
  "data": [
    {"substance": "recombinant human α-galactosidase A (rhα-Gal A) (from UniProt P06280 32-429) (enzyme)", "values": [
      {"measurement": "percent able to bind to the CIMPR", "result": 80, "unit": "%"}
    ]}
  ]
}
